According to the supplement of paper PMC7125110:
± gives the standard error. For part of these data: This sample holds only a part of the variants without activity.

B1: glmS ribozyme (parent)
chain: AUAAAAGCGCCAGAACUACAGAAAUGUAGUUGACGAGGAGGAGGUUUAUCGAAUUUUCGGCGGAUGCCUCCAAA

What was measured:
Conditions in all cases: with glucosamine-6-phosphate
[1] = variants of: B1; test: kcat; higher = faster cleavage; RNA array
Outline: (§1)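 Tiles bearing barcoded ribozyme variants, transcribed in situ by E. coli RNA polymerase on sequenced MiSeq chips, were imaged over ~14 h at 37 °C using a hybridised Cy3 probe. Glucosamine-6-phosphate was supplied at 40 μM to 10 mM in HEPES/KCl/Mg(OAc)2 buffer. kobs came from one- or two-exponential decay fits to normalised per-tile medians, and weighted Michaelis–Menten fits then provided kcat and KM.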

[2] = variants of: B1; test: KM; higher = weaker cofactor use; RNA array
Outline: as §1

[3] = variants of: B1; test: self-cleavage kobs at 40 uM GlcN6P; higher = faster cleavage; RNA array
Outline: as §1

[4] = variants of: B1; test: self-cleavage kobs at 640 uM GlcN6P; higher = faster cleavage; RNA array
Outline: as §1

[5] = variants of: B1; test: self-cleavage kobs at 2500 uM GlcN6P; higher = faster cleavage; RNA array
Outline: as §1

[6] = variants of: B1; test: self-cleavage kobs at 10000 uM GlcN6P; higher = faster cleavage; RNA array
Outline: as §1

[7] = variants of: B1; test: self-cleavage kobs at 160 uM GlcN6P; higher = faster cleavage; RNA array
Outline: as §1

Variant	kcat [1]	KM [2]	self-cleavage kobs at 40 uM GlcN6P [3]	self-cleavage kobs at 640 uM GlcN6P [4]	self-cleavage kobs at 2500 uM GlcN6P [5]	self-cleavage kobs at 10000 uM GlcN6P [6]	self-cleavage kobs at 160 uM GlcN6P [7]
A52U A53U	0.000212 ± 8.7e-06 s⁻¹	4210 ± 360 µM	< 1e-05 s⁻¹	2.65e-05 ± 1e-05 s⁻¹	8.03e-05 ± 1.2e-05 s⁻¹	0.000148 ± 1.7e-05 s⁻¹	–
A64U C70G	1.26e-05 ± 2.6e-06 s⁻¹	–	< 1e-05 s⁻¹	–	–	–	–
U30G C68U	0.00118 ± 0.00027 s⁻¹	3820 ± 1500 µM	–	0.000154 ± 3.1e-05 s⁻¹	0.000642 ± 0.00015 s⁻¹	0.000827 ± 0.00013 s⁻¹	–
C16G U47G	0.000729 ± 0.00014 s⁻¹	1210 ± 400 µM	–	0.000307 ± 4.8e-05 s⁻¹	0.000604 ± 0.0001 s⁻¹	0.000565 ± 0.0001 s⁻¹	7.03e-05 ± 1.6e-05 s⁻¹
C11A U30G	0.000664 ± 7.4e-05 s⁻¹	6140 ± 920 µM	–	6.39e-05 ± 1.1e-05 s⁻¹	0.000172 ± 5.6e-05 s⁻¹	0.000422 ± 9.6e-05 s⁻¹	–
G40U U47G	0.000765 ± 0.00012 s⁻¹	908 ± 250 µM	4.04e-05 ± 1e-05 s⁻¹	0.000262 ± 5.2e-05 s⁻¹	0.000699 ± 0.00013 s⁻¹	0.000681 ± 0.00011 s⁻¹	0.000115 ± 2.6e-05 s⁻¹
G32A G40C A48U	< 1e-05 s⁻¹	–	< 1e-05 s⁻¹	–	–	–	–
G40A C70A	0.000241 ± 1.6e-05 s⁻¹	350 ± 60 µM	2.59e-05 ± 1.2e-05 s⁻¹	0.000163 ± 2.5e-05 s⁻¹	0.000235 ± 4.9e-05 s⁻¹	0.000217 ± 3.8e-05 s⁻¹	6.86e-05 ± 1.9e-05 s⁻¹
U46G A53U	0.006 ± 0.0013 s⁻¹	2190 ± 770 µM	0.000116 ± 2.4e-05 s⁻¹	0.00141 ± 0.00032 s⁻¹	0.00253 ± 0.00059 s⁻¹	0.00566 ± 0.00098 s⁻¹	–
A15U U57G C58U C70A	6.42e-05 ± 1.8e-05 s⁻¹	–	–	9.48e-05 ± 3.5e-05 s⁻¹	7.42e-05 ± 2e-05 s⁻¹	–	4.86e-05 ± 1.7e-05 s⁻¹
U30C C58G	2e-05 ± 1.6e-06 s⁻¹	–	–	< 1e-05 s⁻¹	–	–	–
G41A U55G	0.000144 ± 2.3e-05 s⁻¹	–	–	0.000142 ± 3.9e-05 s⁻¹	0.000107 ± 1.9e-05 s⁻¹	0.000179 ± 2.9e-05 s⁻¹	5.67e-05 ± 1.5e-05 s⁻¹
U45G U56A	0.00335 ± 0.00043 s⁻¹	1720 ± 280 µM	7.59e-05 ± 1.8e-05 s⁻¹	0.000848 ± 0.00019 s⁻¹	0.00206 ± 0.00051 s⁻¹	–	0.000299 ± 6.2e-05 s⁻¹
G13U A53U	0.00139 ± 4.1e-05 s⁻¹	3550 ± 190 µM	–	0.000213 ± 3.9e-05 s⁻¹	0.000584 ± 0.00011 s⁻¹	0.00103 ± 0.00011 s⁻¹	5.58e-05 ± 2e-05 s⁻¹
C34U U69C	< 1e-05 s⁻¹	–	–	–	–	–	–
A48C A53U	0.000244 ± 1.5e-05 s⁻¹	2410 ± 320 µM	–	4.84e-05 ± 1.1e-05 s⁻¹	0.000131 ± 2e-05 s⁻¹	0.000191 ± 3e-05 s⁻¹	–
